In IntAct's records for PubMed 16462746:

B1: Rab5 GDP/GTP exchange factor (Bos taurus (Bovine)), O18973 (parent)
chain: MSLKSERRGIHVDQSELLCKKGCGYYGNPAWQGFCSKCWREEYHKARQKQIQEDWELAERLQREEEEAFASSQSSQGAQSLTFSKFEEKKTNEKTRKVTTVKKFFSASSRVGAKKAEIQEAKAPSPSINRQTSIETDRVSKEFIEFLKTFHKTGQEIYKQTKLFLEAMHYKRDLSIEEQSECTQDFYQNVAERMQTRGKVPPERVEKIMDQIEKYIMTRLYKYVFCPETTDDEKKDLAIQKRIRALHWVTPQMLCVPVNEEIPEVSDMVVKAITDIIEMDSKRVPRDKLACITKCSKHIFNAIKITKNEPASADDFLPTLIYIVLKGNPPRLQSNIQYITRFCNPSRLMTGEDGYYFTNLCCAVAFIEKLDAQSLNLSQEDFDRYMSGQTSPRKQESENWSPDACLGVKQMYKNLDLLSQLNERQERIMNEAKKLEKDLIDWTDGIAKEVQDIVEKYPLEIRPPNQSVAAIDSENVENDKLPPPLQPQVYAG

Variants of: B1
Details: with UBE2D3, P61077-1
Chain of UBE2D3, P61077-1 (P61077 whole entry): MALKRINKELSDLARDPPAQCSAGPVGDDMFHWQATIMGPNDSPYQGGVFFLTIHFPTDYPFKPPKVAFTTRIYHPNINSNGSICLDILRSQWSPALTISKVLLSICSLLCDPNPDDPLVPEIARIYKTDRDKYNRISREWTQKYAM

Row | Variant | effect of a mutation on the interaction
1 | Y25A;Y26A | disrupting interaction
